Consider 1 molecule from patent US20050153872A1, “Methods and compositions for the treatment of infection” (priority 2004, published 2005).

For assay [1], the system named is ATCC 700671 PRSP (S. pneumoniae). The assay is described as follows: In vivo protection effects of Ph-SP. Also noted: species or system mice. The settings on record: for Death distribution in hours 24 h / Death distribution in hours 48 h / Death distribution in hours 72 h / Death distribution in hours 96 h / Death distribution in hours 120 h / Death distribution in hours 144 h / Death distribution in hours 168 h / Number of Death: 5 animals. The protocol: To assess the in vivo effect of Ph-SP, mice were injected with ATCC 700671 PRSP intraperitoneally, followed by intravenous injections of PH-SP or controls.
One hour after administration of the fatal dose of ATCC 700671 PRSP (10^5 CFU/ml), each mouse was injected through the tail vein with test agents at three dosages as described in Table 4.

Assay [2] deals with S. pneumoniae ATCC 700671 (Penicillin-resistant SP). The settings on record: 5 ug/ml.
Assay [3] relates to S. pneumoniae BQIOC 31201 (non-resistant). The settings on record: Ph-SP 70,000 daltons vs penicillin 350 daltons.

B1: Ph-SP: Colicin Ia linked to ComC pheromone of S. pneumoniae (protein)
chain: SDPVARGITNPGAESLGYDSDGHEIMAVASPIYVASNPPRVASPVFHGTPPAWSSFGNKTIWGGNEWVASPDSPTRSDIEKRDKEITAYKNTLSAQQKENENKRTEAGKRLSAAIAAREKDENTLKTLRAGNADAADITRQEFRLLQAELREYGFRTEIAGYDALRLHTESRMLFADADSLRISPREARSLIEQAEKRQKDAQNADKKAADMLAEYERRKGILDTRLSELEKNGGAALAVLDAQQARLLGQQTRNDRAISEARNKLSSVTESLNTARNALTRAEQQLTQQKNTPDGKTIVSPEKFPGRSSTNHSIVVSGDPRFAGTIKITTSAVIDNRANLNYLLSHSGLDYKRNILNDRNPVVTEDVEGDKKIYNAEVALAEWDKLRQRLLDARNKITSAESAVASNSARNNLSARTNEQKHANDALNALLKEKENIRNQLSGINQKIAEEKRKQDELKATKDAINFTTEFLKSVSEKYGAKAEQLAREMAGQAKGKKIRNVEEALKTYEKYRADINKKINAKDRAAIAAALESVKLSDISSNLNRFSRGLGYAGKFTSLADWITEFGKAVARGTENWRPLFVKTETIIAGNAATALVALALVFSILTGSALGIIGYGLLMAVTGALIDESLVEKANKFWGIEMRLSKFFRDFILQRKK
modifications: colicin Ia attached to streptococcus pneumoniae polypeptide pheromone
Take B1: in assay [1] (5 mg/kg tail vein), the “Death distribution in hours 24 h” value stood at 0, the “Death distribution in hours 48 h” value stood at 1, the “Death distribution in hours 72 h” value is 0 and the “Death distribution in hours 96 h” value turned out to be 0. Further, in assay [1] (5 mg/kg tail vein), the “Death distribution in hours 120 h” value was determined as 0, the “Death distribution in hours 144 h” value is reported as 0, the “Death distribution in hours 168 h” value stood at 0 and the “Number of Death” value was 1. Further, in assay [1] (10 mg/kg tail vein), the “Death distribution in hours 24 h” value was 0, the “Death distribution in hours 48 h” value is 0, the “Death distribution in hours 72 h” value stood at 0 and the “Death distribution in hours 96 h” value came out at 0. Moreover, in assay [1] (10 mg/kg tail vein), the “Death distribution in hours 120 h” value is listed as 0, the “Death distribution in hours 144 h” value is 0, the “Death distribution in hours 168 h” value stood at 0 and the “Number of Death” value was found to be 0. For the same molecule, the “protection against infection in mice” value in assay [1] (ATCC 700671 PRSP i.p., agent i.v.) is given as “prevents streptococcus pneumoniae infection in mice”. In addition, the “inhibition of cell growth” value in assay [2] was “more than 90%”. Further, in assay [3], the “bactericidal effect relative to penicillin on a molar basis” value is “two hundred fold greater”.
